B1: KCNG1 (parent)
chain: LFVTVTAVNLSVSTLPSLREEEEQ

In the supplement of paper PMC10567573 one finds protein stability index data, which are given here for 110 variants.
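Also: lentivirally expressed fusions sorted by FACS into six bins by GFP to DsRed ratio, PSI derived from sequencing read proportions per bin multiplied by bin number.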

The data set covers variants of B1. The data set is described as follows: protein stability index of a GFP-peptide fusion (GPS, HEK-293T) (PSI 1-6); higher = more stable. Particulars: c terminus: a fixed tail appended.
As to LFVTVTAVNLSYSTLPSLREEEEQ [V12Y], the protein stability index was determined as 2.08.

LFVTVTAVNLSVSTLPSLREEEED [Q24D]: the protein stability index is 2.28.

Regarding LFVTVTAVNLSVSTLPSLREEEEM [Q24M], the protein stability index was 2.66.

As for LFVTVTAVNLSVSTLPSLREEEEE [Q24E], the protein stability index came out at 1.37.

On to LFVTVTAVNLSVSTLPSLREEEEK [Q24K], for which the protein stability index turned out to be 1.74.

Regarding LFVTVTAVNLSVSTLPSLREEEEY [Q24Y], the protein stability index was found to be 2.27.

With LFVTVTAVNLSVSTLPSLREEEES [Q24S], the protein stability index came out at 2.44.

In the case of LFVTVTAVNLSVSTLPSLREEEEL [Q24L], the protein stability index turned out to be 1.02.

Regarding LFVTVTAVNLSVSTLPSLREEEEN [Q24N], the protein stability index stood at 2.31.

As to LFVTVTAVNLSVSTLCSLREEEEQ [P16C], the protein stability index was determined as 1.65.

Consider LFVTVTAVNLSVSTLNSLREEEEQ [P16N], for which the protein stability index worked out at 3.87.

As to LFVTVTAVNLSVSTLDSLREEEEQ [P16D], the protein stability index is 1.19.

Take LFVTVTAVNLSVSTLRSLREEEEQ [P16R]: the protein stability index was found to be 1.75.

For the variant LFVTVTAVNLSVSTLMSLREEEEQ [P16M], the protein stability index is 3.14.

On to LFVTVTAVNLSVSTLKSLREEEEQ [P16K], for which the protein stability index worked out at 2.5.

As to LFVTVTAVNLSVSTLSSLREEEEQ [P16S], the protein stability index is 2.05.

Take LFVTVTAVNLSVSTLPSLEEEEEQ [R19E]: the protein stability index stood at 1.43.

Consider LFVTVTAVNLSVSTLPSLHEEEEQ [R19H], for which the protein stability index amounted to 1.41.

In the case of LFVTVTAVNLSVSTLPSLQEEEEQ [R19Q], the protein stability index was determined as 1.2.

For LFVTVTAVNLSVSTLPSLSEEEEQ [R19S], the protein stability index amounted to 2.41.

With LFVTVTAVNLSVSTLPSLDEEEEQ [R19D], the protein stability index amounted to 2.32.

Consider LFVTVTAVNLSVSTLPSLCEEEEQ [R19C], for which the protein stability index amounted to 2.09.

For the variant LFVTVTAVNLSVSTLPSLNEEEEQ [R19N], the protein stability index amounted to 1.96.

As to LFVTVTAVNLSVSTLPSLFEEEEQ [R19F], the protein stability index is 3.41.

As for LFVTVTAVNLSVSTLPSLLEEEEQ [R19L], the protein stability index was 2.85.

Consider LFVTVTAVNLSVSTLPSLVEEEEQ [R19V], for which the protein stability index came out at 1.99.

In the case of LFVTVTAVNLSVSTLPSLKEEEEQ [R19K], the protein stability index was determined as 3.36.

In the case of LFVTVTAVNLSVSTLPSLREEECQ [E23C], the protein stability index amounted to 2.7.

As to LFVTVTAVNLSVSTLPSLREEELQ [E23L], the protein stability index is 3.24.

Consider LFVTVTAVNLSVSTLPSLREEEKQ [E23K], for which the protein stability index came out at 2.12.

On to LFVTVTAVNLSVSTLPSLREEEYQ [E23Y], for which the protein stability index worked out at 2.93.

Consider LFVTVTAVNLSVSTLPSLREEETQ [E23T], for which the protein stability index amounted to 4.29.

Take LFVTVTAVNLSVSTLPSLREEEDQ [E23D]: the protein stability index was 1.71.

As for LFVTVTAVNLSVSTTPSLREEEEQ [L15T], the protein stability index was 3.77.

For LFVTVTAVNLSVSTPPSLREEEEQ [L15P], the protein stability index was 2.48.

For LFVTVTAVNLSVSTIPSLREEEEQ [L15I], the protein stability index turned out to be 1.36.

For LFVTVTAVNLSVSTMPSLREEEEQ [L15M], the protein stability index stood at 2.51.

Consider LFVTVTAVNLSVSTKPSLREEEEQ [L15K], for which the protein stability index was found to be 1.62.

As for LFVTVTAVNLSVSTCPSLREEEEQ [L15C], the protein stability index was determined as 2.81.

With LFVTVTAVNLSVSTVPSLREEEEQ [L15V], the protein stability index is 1.76.

As to LFVTVTAVNLSVSTGPSLREEEEQ [L15G], the protein stability index came to 1.72.

As to LFVTVTAVNLSVSTDPSLREEEEQ [L15D], the protein stability index was found to be 3.09.

As for LFVTVTAVNLSVSTQPSLREEEEQ [L15Q], the protein stability index is 1.05.

For LFVTVTAVNLSVSTLPSNREEEEQ [L18N], the protein stability index was 2.47.

In the case of LFVTVTAVNLSVSTLPSIREEEEQ [L18I], the protein stability index came to 1.62.

Consider LFVTVTAVNLSVSTLPSWREEEEQ [L18W], for which the protein stability index amounted to 3.02.

In the case of LFVTVTAVNLSVSTLPSHREEEEQ [L18H], the protein stability index was found to be 2.87.

For LFVTVTAVNLSVSTLPSSREEEEQ [L18S], the protein stability index turned out to be 3.17.

As to LFVTVTAVNLSVSTLPSTREEEEQ [L18T], the protein stability index is 3.48.

With LFVTVTAVNLSVSTLPSAREEEEQ [L18A], the protein stability index was 3.29.

LFVTVTAVNLSVSTLPSQREEEEQ [L18Q]: the protein stability index worked out at 2.23.

Regarding LFVTVTAVNLSVSTLPSPREEEEQ [L18P], the protein stability index was 2.48.

For the variant LFVTVTAVNLSVSTLPSRREEEEQ [L18R], the protein stability index was determined as 1.57.

As to LFVTVTAVNLSVSTLPSVREEEEQ [L18V], the protein stability index was 2.17.

With LFVTVTAVNLSVSTLPSDREEEEQ [L18D], the protein stability index is 2.05.

For LFVTVTAVNLSVSTLPSYREEEEQ [L18Y], the protein stability index came to 1.35.

Turning to LFVTVTAVNLSVSTLPSMREEEEQ [L18M], the protein stability index came out at 3.35.

As to LFVTVTAVNLSVSYLPSLREEEEQ [T14Y], the protein stability index amounted to 2.34.

As to LFVTVTAVNLSVSWLPSLREEEEQ [T14W], the protein stability index stood at 2.87.

As to LFVTVTAVNLSVSHLPSLREEEEQ [T14H], the protein stability index is 2.56.

In the case of LFVTVTAVNLSVSKLPSLREEEEQ [T14K], the protein stability index was determined as 1.77.

Consider LFVTVTAVNLSVSDLPSLREEEEQ [T14D], for which the protein stability index was found to be 1.52.

Regarding LFVTVTAVNLSVSMLPSLREEEEQ [T14M], the protein stability index was found to be 2.01.

Consider LFVTVTAVNLSVSPLPSLREEEEQ [T14P], for which the protein stability index worked out at 2.61.

Turning to LFVTVTAVNLSVSELPSLREEEEQ [T14E], the protein stability index is 1.99.

Consider LFVTVTAVNLSVSVLPSLREEEEQ [T14V], for which the protein stability index worked out at 2.13.

As for LFVTVTAVNLSVSSLPSLREEEEQ [T14S], the protein stability index amounted to 1.36.

In the case of LFVTVTAVNLSVSRLPSLREEEEQ [T14R], the protein stability index is 4.33.

As for LFVTVTAVNLSVSTLPCLREEEEQ [S17C], the protein stability index worked out at 1.79.

Regarding LFVTVTAVNLSVSTLPELREEEEQ [S17E], the protein stability index was 3.27.

LFVTVTAVNLSVSTLPALREEEEQ [S17A]: the protein stability index amounted to 1.55.

Turning to LFVTVTAVNLSVSTLPHLREEEEQ [S17H], the protein stability index was found to be 1.26.

LFVTVTAVNLSVSTLPFLREEEEQ [S17F]: the protein stability index stood at 1.79.

With LFVTVTAVNLSVSTLPTLREEEEQ [S17T], the protein stability index was determined as 2.22.

Regarding LFVTVTAVNLSVSTLPPLREEEEQ [S17P], the protein stability index was found to be 2.55.

Regarding LFVTVTAVNLSVSTLPKLREEEEQ [S17K], the protein stability index is 4.4.

Take LFVTVTAVNLSVSTLPYLREEEEQ [S17Y]: the protein stability index was determined as 1.51.

Turning to LFVTVTAVNLSVSTLPNLREEEEQ [S17N], the protein stability index is 1.7.

For the variant LFVTVTAVNLSVSTLPGLREEEEQ [S17G], the protein stability index came to 2.51.

LFVTVTAVNLSVSTLPSLRSEEEQ [E20S]: the protein stability index is 3.18.

In the case of LFVTVTAVNLSVSTLPSLRTEEEQ [E20T], the protein stability index came to 3.53.

With LFVTVTAVNLSVSTLPSLRPEEEQ [E20P], the protein stability index was 1.7.

Regarding LFVTVTAVNLSVSTLPSLRFEEEQ [E20F], the protein stability index is 3.08.

Take LFVTVTAVNLSVSTLPSLRCEEEQ [E20C]: the protein stability index was determined as 3.25.

As for LFVTVTAVNLSVSTLPSLRDEEEQ [E20D], the protein stability index was 1.67.

LFVTVTAVNLSVSTLPSLRKEEEQ [E20K]: the protein stability index was determined as 1.62.

For the variant LFVTVTAVNLSVLTLPSLREEEEQ [S13L], the protein stability index worked out at 2.71.

In the case of LFVTVTAVNLSVITLPSLREEEEQ [S13I], the protein stability index came out at 2.89.

For the variant LFVTVTAVNLSVHTLPSLREEEEQ [S13H], the protein stability index came to 1.29.

Take LFVTVTAVNLSVQTLPSLREEEEQ [S13Q]: the protein stability index stood at 1.78.

In the case of LFVTVTAVNLSVDTLPSLREEEEQ [S13D], the protein stability index was 1.55.

With LFVTVTAVNLSVFTLPSLREEEEQ [S13F], the protein stability index amounted to 1.52.

With LFVTVTAVNLSVYTLPSLREEEEQ [S13Y], the protein stability index was 3.08.

In the case of LFVTVTAVNLSVSTLPSLREELEQ [E22L], the protein stability index is 3.04.

Regarding LFVTVTAVNLSVSTLPSLREEIEQ [E22I], the protein stability index came out at 2.19.

On to LFVTVTAVNLSVSTLPSLREETEQ [E22T], for which the protein stability index amounted to 2.14.

Consider LFVTVTAVNLSVSTLPSLREEKEQ [E22K], for which the protein stability index stood at 3.13.

Take LFVTVTAVNLSVSTLPSLREESEQ [E22S]: the protein stability index stood at 1.89.

Turning to LFVTVTAVNLSVSTLPSLREEMEQ [E22M], the protein stability index is 3.4.

As for LFVTVTAVNLSVSTLPSLREEHEQ [E22H], the protein stability index was found to be 1.61.

Take LFVTVTAVNLSVSTLPSLREEPEQ [E22P]: the protein stability index is 2.31.

In the case of LFVTVTAVNLSVSTLPSLREEQEQ [E22Q], the protein stability index amounted to 3.16.

For the variant LFVTVTAVNLSVSTLPSLREGEEQ [E21G], the protein stability index amounted to 1.01.

For LFVTVTAVNLSVSTLPSLRENEEQ [E21N], the protein stability index was 3.49.

With LFVTVTAVNLSVSTLPSLREYEEQ [E21Y], the protein stability index is 3.39.

On to LFVTVTAVNLSVSTLPSLREREEQ [E21R], for which the protein stability index came out at 2.43.

For the variant LFVTVTAVNLSVSTLPSLREVEEQ [E21V], the protein stability index amounted to 1.63.

In the case of LFVTVTAVNLSVSTLPSLREHEEQ [E21H], the protein stability index came out at 2.28.

For the variant LFVTVTAVNLSVSTLPSLREPEEQ [E21P], the protein stability index amounted to 2.06.

For the variant LFVTVTAVNLSVSTLPSLREKEEQ [E21K], the protein stability index came to 2.25.
